Reference: patent US8357518B2, “Thermostable enzymes for the hydrolysis of mannan-containing polysaccharides” (The Board of Trustees of the University of Illinois, priority 2010, dated 2013)

B1: Caldanaerobius polysaccharolyticus endo-β-mannanase Man5B, wild type, SEQ ID NO: 31 (Caldanaerobius polysaccharolyticus) (protein)
chain: MKKYGFNFQWMYVWEEGREPEPPDKKALDFLAETGFNFVRIPVDYRFWTRNFDYFNPDKKVFEYIDLYLRECSARNIHMCLNLHRAPGYCINRNDIERDNLWLDKRAQDGFVYQWELFAKRYKGVSSKFLSFDLVNEPPNIGQYGLTRENHASLIIRTVEAIRKIDPDREIVIDGLGGGNIAMPELAHLGVVHSGRGYQPMALTHYQASWWDGHKGLPEPYYPDLLWQGKVWNKDTLREYYKPWRDLQQKGVNVHIGEFGCFNKTSNDVAIRWFEDVLSLYKEFEWGYSLWNFKGPFGIVEHGRPGAKYEYYRGFKVDRELLDLLVENRV
B2: Caldanaerobius polysaccharolyticus endo-β-mannanase Man5A truncation mutant Man5A-TM1, SEQ ID NO: 28 (Caldanaerobius polysaccharolyticus) (protein)
chain: AGTSGDGRFHVVGNKIVDPDGKDFIIKGVNIQGYRSWEKRSVLQDVHLIADVWKFNTVRLNCFIGQNNWGEGTGANNDIDAIIKAFTAKKVVVEIDLHDTTGYPPLSNPPPAPGQPSLDQAIAWFKELAAKYKDNPYVWFNTMNEPGSSTAPLDPQWKVANEEIIKAIRSTGADNIIVVDGWSYANEGIEQNTPTVDEKRSAVLTYGQDLLNADSAKNTIFAFHNYNEGDIQKKVEDYIDRANAKGLYVFMEEYGKDYSDAAKEGVKSGLQAVMNKGAGRIYWNWDGYDLYDLTSGTGRGSGWEINKTDGSKPTNLSWVGDKIWDDNHGITPTFDDQNPKVDLALERLIANNNGFKAGDKVQFTTFLRNSGDLPIGKDSKVVVKFYVDGVQLGDPVEISGGIAVGQRIPVTSPELTVSKTDFTVKAVIDSSSTYADGAEDAVIENNWIEAAFNSTAPSSGYELVVTGIKITPDTVKEGDYVQAQVTVANQGPEATPVTNIIGWFYVNGYYYTLDDAAKSCAEQDNVTLKPGESITLSTKVKYRAAAPFNFSFVLENLYADDQNQSNNSITVNVPVKMGEGGVNMVSNPGFEDGLDSWQDWQQDMSAVPEAAHNGALGLKIGGGKAAGGGQDIPLKPNTTYILGAWAKFDSKPAGTFDVVVQYHLKDANNTYVQHILNFNETDWTYKQLLFTTPDVFGSTPQLALWKGDTSKANLYVDDVYLVEVSNLIVNGTAENGMDGWPDWGYPVSAVPEAAYGGTKGFKLSGGKQAGMGQKVALKPNTTYILGAWGKFTAKPGTYCDVIVQYHLKDANNTYVQNILRFTETDWTYKQVVFTTPDAFGSDPEFVLWKDDASNADFYADNITLVEV

Legend:
[1] = substrate: OC[C@H]1O[C@@H](O[C@H]2[C@H](O)[C@@H](O)[C@H](O[C@H]3[C@H](O)[C@@H](O)[C@H](O[C@H]4[C@H](O)[C@@H](O)[C@H](O[C@H]5[C@H](O)[C@@H](O)[C@H](O[C@H]6[C@H](O)[C@@H](O)C(O)O[C@@H]6CO)O[C@@H]5CO)O[C@@H]4CO)O[C@@H]3CO)O[C@@H]2CO)[C@H](O)[C@@H](O)[C@@H]1O; test: purified protein, by the assay type; settings: other: Man5B 3 nM, oligosaccharide 30 μM, citrate buffer 50 mM, pH 5.5, 5 min, triplicate
[2] = substrate: OC[C@H]1O[C@@H](O[C@H]2[C@H](O)[C@H](O)[C@H](O[C@H]3[C@H](O)[C@H](O)[C@H](O[C@H]4[C@H](O)[C@H](O)[C@H](O[C@H]5[C@H](O)[C@H](O)[C@H](O[C@H]6[C@H](O)[C@H](O)C(O)O[C@@H]6CO)O[C@@H]5CO)O[C@@H]4CO)O[C@@H]3CO)O[C@@H]2CO)[C@@H](O)[C@@H](O)[C@@H]1O; test: purified protein, by the assay type; settings: other: Man5B 3 nM, oligosaccharide 30 μM, citrate buffer 50 mM, pH 5.5, 5 min, triplicate
[3] = substrate: OC[C@H]1O[C@@H](O[C@H]2[C@H](O)[C@H](O)[C@H](O[C@H]3[C@H](O)[C@H](O)C(O)O[C@@H]3CO)O[C@@H]2CO)[C@@H](O)[C@@H](O)[C@@H]1O; test: purified protein, by the assay type; settings: other: Man5B 3 nM, oligosaccharide 30 μM, citrate buffer 50 mM, pH 5.5, 5 min, triplicate
[4] = substrate: OC[C@H]1O[C@@H](O[C@H]2[C@H](O)[C@@H](O)[C@H](O[C@H]3[C@H](O)[C@@H](O)C(O)O[C@@H]3CO)O[C@@H]2CO)[C@H](O)[C@@H](O)[C@@H]1O; test: purified protein, by the assay type; settings: other: Man5B 3 nM, oligosaccharide 30 μM, citrate buffer 50 mM, pH 5.5, 5 min, triplicate
[5] = substrate: OC[C@H]1O[C@@H](O[C@H]2[C@H](O)[C@@H](O)[C@H](O[C@H]3[C@H](O)[C@@H](O)[C@H](O[C@H]4[C@H](O)[C@@H](O)C(O)O[C@@H]4CO)O[C@@H]3CO)O[C@@H]2CO)[C@H](O)[C@@H](O)[C@@H]1O; test: purified protein, by the assay type; settings: other: Man5B 3 nM, oligosaccharide 30 μM, citrate buffer 50 mM, pH 5.5, 5 min, triplicate
[6] = substrate: OC[C@H]1O[C@@H](O[C@H]2[C@H](O)[C@H](O)[C@H](O[C@H]3[C@H](O)[C@H](O)[C@H](O[C@H]4[C@H](O)[C@H](O)C(O)O[C@@H]4CO)O[C@@H]3CO)O[C@@H]2CO)[C@@H](O)[C@@H](O)[C@@H]1O; test: purified protein, by the assay type; settings: other: Man5B 3 nM, oligosaccharide 30 μM, citrate buffer 50 mM, pH 5.5, 5 min, triplicate
[7] = substrate: O=[N+]([O-])c1ccc(O[C@@H]2O[C@H](CO)[C@@H](O)[C@H](O)[C@@H]2O)cc1; test: Catalytic efficiency with pNP-linked sugars (Man5A-TM1); assay type: biochemical, Caldanaerobius polysaccharolyticus; settings: other: Man5A-TM1, pNP substrates, citrate buffer 50 mM, pH 5.5, 65° C., triplicate
Procedure: The plasmid constructs were then introduced into E. coli BL-21 CodonPlus (DE3) RIL competent cells by heat shock, and grown overnight in lysogeny broth (LB) agar medium supplemented with ampicillin (100 μg/mL) and chloramphenicol (50 μg/mL) at 37° C. After 12 h, single colonies were selected and used to inoculate fresh LB (10 mL) supplemented with the antibiotics above at the same concentrations, followed by culturing with aeration for 8 h at 37° C. The pre-cultures were then inoculated into fresh LB (1 L) supplemented with ampicillin and chloramphenicol and the cultures were incubated at 37° C. with vigorous aeration (225 rpm/min). […] Aliquots of eluted fractions were analyzed by sodium dodecyl sulfate-polyacrylamide gel electrophoresis (SDS-PAGE) and protein bands were visualized by staining with Coomassie brilliant blue G-250. […] The UV absorbances of the protein solutions were recorded at 280 nm using a Nanoprop 1000 from Thermo Scientific (Waltham, Mass.) and the protein concentrations were calculated using the following extinction coefficients: Man5A-TM1, ε280 nm=189 mM^−1 cm^−1; Man5A-TM2, ε280 nm=113 mM^−1 cm^−1; Man5B, ε280 nm=103 mM^−1 cm^−1.
Hydrolysis of para-nitrophenyl (pNP) linked sugars. […] The extinction coefficient of pNP at pH 5.5 was determined as 1636 M^−1 cm^−1.

Protein | kcat/Km [1] [M⁻¹ s⁻¹] | kcat/Km [2] | kcat/Km [3] [M⁻¹ s⁻¹] | kcat/Km [4] [M⁻¹ s⁻¹] | kcat/Km [5] [M⁻¹ s⁻¹] | kcat/Km [6] [M⁻¹ s⁻¹] | kcat/Km [7]
B1 | 43000 ± 3000 | (2.7 ± 0.7) × 10^2 mM^−1 s^−1 | 270 ± 50 | 1000 ± 70 | 1400 ± 200 | 63000 ± 6000 | –
B2 | – | – | – | – | – | – | (1.4 ± 0.3) × 10^−2 mM^−1 s^−1
